Laboratory results reported in patent publication US20090191228A1.
One block for each substance: values may come before it.

How the values were obtained:
[1] = target: nOVA (non-treated ovalbumin, 1 mg/ml in PBS) (chicken) (UniProt P01012); experiment: ELISA, immobilized OVA forms, Fn F4-5 in solution; normalized to nOVA
[2] = target: cdH5-0 (dH5-0 supernatant after 10 min at 16,000-18,000*g) (influenza virus H5N1 strain A/Vietnam/1203/04); experiment: ELISA, immobilized H5 forms, Fn F4-5 in solution; normalized to cdH5-0
[3] = target: dH5-III (cdH5-0 incubated about 16 h at 47.5 C) (influenza virus H5N1 strain A/Vietnam/1203/04); experiment: as above
[4] = target: fdH5-0 (ultrafiltrated dH5-0, flow-through of a 1,000 kDa cut-off filter) (influenza virus H5N1 strain A/Vietnam/1203/04); experiment: as above
[5] = target: dH5-II (cdH5-0 misfolded by heat cycling at pH 2) (influenza virus H5N1 strain A/Vietnam/1203/04); experiment: as above
[6] = target: dH5-I (cdH5-0 misfolded by heat cycling at pH 7) (influenza virus H5N1 strain A/Vietnam/1203/04); experiment: as above
[7] = target: dOVA-1 (ovalbumin misfolded by HCl treatment, 40 min 37 C, neutralized) (chicken) (UniProt P01012); experiment: ELISA, immobilized OVA forms
[8] = target: cdH5-0 (dH5-0 supernatant after 10 min at 16,000-18,000*g) (influenza virus H5N1 strain A/Vietnam/1203/04)
[9] = target: fdH5-0 (ultrafiltrated dH5-0, flow-through of a 1,000 kDa cut-off filter) (influenza virus H5N1 strain A/Vietnam/1203/04)
[10] = target: dH5-II (cdH5-0 misfolded by heat cycling at pH 2) (influenza virus H5N1 strain A/Vietnam/1203/04)

Substance: fourth and fifth finger domain of fibronectin (Fn F4-5) (from UniProt P02751 183-275)
Normalized affinity, kD (%) [1]: 100%
Normalized affinity, kD (%) [2]: 100%
Normalized affinity, kD (%) [3]: 6%
Normalized affinity, kD (%) [4]: 69%
Normalized affinity, kD (%) [5]: 88%
Normalized affinity, kD (%) [6]: 0%

Scaled antibody binding (relative affinity kD, a.u.) [7]: 20.8 a.u.
Substance: monoclonal anti-OVA IgG (A6075, Sigma) (antibody)

Substance: tissue type plasminogen activator (tPA) (from UniProt P00750 36-562) (enzyme)
Bmax [8]: 0.36
Kd [8]: 102 nM
Bmax [9]: 0.37
Kd [9]: 342 nM
Bmax [10]: 0.07
Kd [10]: 19 nM
